Measurements from patent publication US20220380441A1 (VIR BIOTECHNOLOGY, published 2022).
Positions count from the first letter of the chain named.

Experiments:
[1] = molecular target: T1, Human complement component C1q (human, UniProt P02745 23-245; P02746 28-253; P02747 29-245); assay: BLI (Octet RED96), IgG captured on anti-human Fab (CH1) sensors, C1q at 3 µg/ml
T1 construct: also called human C1q; human complement protein C1q
Experimental: (§1) IgG-loaded sensors were then exposed for 4 minutes to a solution of kinetics buffer (pH 7.1) containing 3 μg/ml of purified human C1q (left part of the plot), followed by a dissociation step in the same buffer for additional 4 minutes (right part of the plot). Association and dissociation profiles were measured in real time as change in the interference pattern using an Octet RED96 (FortéBio).
(§2) IgG-loaded sensors were then exposed for 4 minutes to a solution of kinetics buffer (pH 7.1) containing 3 μg/ml of purified human C1q (left part of the plot), followed by a dissociation step in the same buffer for 4 additional minutes (right part of the plot). Association and dissociation profiles were measured in real time as change in the interference pattern using an Octet RED96 (FortéBio).

[2] = molecular target: T2, Recombinant human FcγRIIa (H131), His-tagged (human, UniProt P12318 34-218); assay: BLI (Octet RED96), His-tagged FcγR on anti-penta-His sensors, mAb at 2 µg/ml cross-linked with anti-human F(ab')2
T2 construct: also called FcγRIIa allele H131; not shown: C-terminal 6-His tag
T2 sequence (looked up): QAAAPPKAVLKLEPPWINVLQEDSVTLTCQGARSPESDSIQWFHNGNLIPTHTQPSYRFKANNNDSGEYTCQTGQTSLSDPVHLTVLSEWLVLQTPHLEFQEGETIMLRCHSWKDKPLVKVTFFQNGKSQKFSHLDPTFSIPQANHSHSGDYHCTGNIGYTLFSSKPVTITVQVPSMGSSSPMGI

[3] = molecular target: T3, Recombinant human FcγRIIa (R131), His-tagged (human, UniProt P12318 34-218); assay: as above
T3 construct: also called FcγRIIa allele R131
T3 sequence (looked up): T2 sequence (looked up) with H134R
Experimental: His-tagged human FcγRs ((A) FcγRIIa allele H131; (B) FcγRIIa allele R131; (C) FcγRIIIa allele F158; (D) FcγRIIIa allele V158; (E) FcγRIIb) at 2 μg/ml were captured onto anti-penta-His sensors for 6 minutes. FcγRs-loaded sensors were then exposed for 5 minutes to a solution of kinetics buffer (pH 7.1) containing 2 μg/ml of each mAb (left part of the plot) in the presence 1 μg/ml of affiniPure F(ab′)₂ Fragment Goat Anti-Human IgG, F(ab′)₂ fragment specific (to cross-link human mAbs through the Fab fragment), followed by a dissociation step in the same buffer for additional 4 minutes (right part of the plot). Association and dissociation profiles were measured in real time as change in the interference pattern using an Octet RED96 (FortéBio).
Briefly, His-tagged human FcγRs (FcγRIIa allele H131, FcγRIIa allele R131, FcγRIIAa allele F158, FcγRIIIa allele V158 and FcγRIIb) at 2 μg/ml were captured onto anti-penta-His sensors for 6 minutes. FcγR-loaded sensors were then exposed for 4 minutes to a solution of kinetics buffer (pH 7.1) containing 2 μg/ml of each mAb in the presence 1 μg/ml of affiniPure F(ab′)2 Fragment Goat Anti-Human IgG, F(ab′)2 fragment-specific (to cross-link human mAbs through the Fab fragment), followed by a dissociation step in the same buffer for 4 additional minutes (right part of the plot). Association and dissociation profiles were measured in real time as change in the interference pattern using an Octet RED96 (FortéBio).

[4] = molecular target: T4, Recombinant human FcγRIIIa (V158), His-tagged (human, UniProt P08637 17-208); assay: as above
T4 construct: also called FcγRIIIa allele V158; not shown: C-terminal 6-His tag

[5] = molecular target: T5, Recombinant human FcγRIIIa (F158), His-tagged (human, UniProt P08637 17-208); assay: as above
T5 construct: also called FcγRIIIa allele F158; not shown: C-terminal 6-His tag

[6] = molecular target: T6, Recombinant human FcγRIIb, His-tagged (human, UniProt P31994 43-217); assay: as above
T6 construct: not shown: C-terminal 6-His tag
T6 sequence (looked up): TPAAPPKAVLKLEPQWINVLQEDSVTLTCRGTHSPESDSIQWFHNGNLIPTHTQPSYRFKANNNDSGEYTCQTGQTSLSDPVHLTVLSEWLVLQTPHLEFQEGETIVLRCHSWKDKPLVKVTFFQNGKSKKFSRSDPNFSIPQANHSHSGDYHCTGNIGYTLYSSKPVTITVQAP

[7] = molecular target: T1, Human complement component C1q; assay: BLI (Octet RED96), IgG captured on anti-human Fab (CH1) sensors
Experimental: as §1, §2

T1 sequence (P02745 23-245 limits assumed, chain 1 of 3): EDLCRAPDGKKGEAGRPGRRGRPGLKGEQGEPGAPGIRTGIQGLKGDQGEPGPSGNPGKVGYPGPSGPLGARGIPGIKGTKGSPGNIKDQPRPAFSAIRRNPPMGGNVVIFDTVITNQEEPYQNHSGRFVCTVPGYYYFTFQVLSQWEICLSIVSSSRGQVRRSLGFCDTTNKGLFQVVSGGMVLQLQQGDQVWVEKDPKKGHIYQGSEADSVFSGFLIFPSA
T1 sequence (P02746 28-253 limits assumed, chain 2 of 3): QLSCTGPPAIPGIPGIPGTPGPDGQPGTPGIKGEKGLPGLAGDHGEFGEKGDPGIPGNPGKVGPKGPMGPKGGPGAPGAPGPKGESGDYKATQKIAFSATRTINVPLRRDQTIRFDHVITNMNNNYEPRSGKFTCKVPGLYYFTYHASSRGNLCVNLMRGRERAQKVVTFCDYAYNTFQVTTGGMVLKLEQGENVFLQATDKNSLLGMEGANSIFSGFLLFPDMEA
T1 sequence (P02747 29-245 limits assumed, chain 3 of 3): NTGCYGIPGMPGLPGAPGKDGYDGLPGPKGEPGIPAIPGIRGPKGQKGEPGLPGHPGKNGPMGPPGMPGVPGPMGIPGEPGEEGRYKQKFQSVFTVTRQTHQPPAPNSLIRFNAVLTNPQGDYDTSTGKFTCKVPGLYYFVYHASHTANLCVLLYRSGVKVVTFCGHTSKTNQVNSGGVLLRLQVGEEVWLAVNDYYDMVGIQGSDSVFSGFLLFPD
T4 sequence (P08637 17-208 F176V limits assumed): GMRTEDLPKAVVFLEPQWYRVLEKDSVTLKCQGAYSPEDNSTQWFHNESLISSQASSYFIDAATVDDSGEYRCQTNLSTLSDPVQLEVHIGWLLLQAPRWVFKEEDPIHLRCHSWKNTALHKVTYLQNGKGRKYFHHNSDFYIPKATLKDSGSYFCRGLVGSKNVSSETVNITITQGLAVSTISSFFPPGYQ
T5 sequence (P08637 17-208 limits assumed): as the sequence (P08637 17-208 F176V limits assumed) above, with V160F counted along it

B1: HBC34-V35-MLNS (antibody, human IgG1, lambda)
heavy: not shown
light: SYELTQPPSVSVSPGQTVSIPCSGDKLGNKNVAWFQHKPGQSPVLVIYEVKYRPSGIPERFSGSNSGNTATLTISGTQAMDEAAYFCQTFDSTTVVFGGGTRLTVLGQPKAAPSVTLFPPSSEELQANKATLVCLISDFYPGAVTVAWKADSSPVKAGVETTTPSKQSNNKYAASSYLSLTPEQWKSHRSYSCQVTHEGSTVEKTVAPTECS
binding result [1]: binds | binding result [2]: binds | binding result [3]: binds | binding result [4]: binds | binding result [5]: binds | binding result [6]: binds

B2: HBC34-V35-MLNS-GAALIE (antibody, human IgG1, lambda)
heavy: ELQLVESGGGWVQPGGSQRLSCAASGRIFRSFYMSWVRQAPGKGLEWVATINQDGSEKLYVDSVKGRFTISRDNAKNSLFLQMNNLRVEDTAVYYCAAWSGNSGGMDVWGQGTTVSVSSASTKGPSVFPLAPSSKSTSGGTAALGCLVKDYFPEPVTVSWNSGALTSGVHTFPAVLQSSGLYSLSSVVTVPSSSLGTQTYICNVNHKPSNTKVDKKVEPKSCDKTHTCPPCPAPELLAGPSVFLFPPKPKDTLMISRTPEVTCVVVDVSHEDPEVKFNWYVDGVEVHNAKTKPREEQYNSTYRVVSVLTVLHQDWLNGKEYKCKVSNKALPLPEEKTISKAKGQPREPQVYTLPPSRDELTKNQVSLTCLVKGFYPSDIAVEWESNGQPENNYKTTPPVLDSDGSFFLYSKLTVDKSRWQQGNVFSCSVLHEALHSHYTQKSLSLSPGK
light: B1 light
binding result [7]: no binding (tested: 3 µg/ml of purified human C1q) | binding result [2]: binds | binding result [3]: binds | binding result [4]: binds | binding result [5]: binds
